Results reported in paper PMC10871247 (bioRxiv, 2024).
Positions count from the first letter of the chain named. Numbers in names are those of the source.

Key:
[1] = target: the molecule itself; experiment: native gel or EMSA
[2] = target: the molecule itself; experiment: SEC
[3] = target: the molecule itself; experiment: native MS

B1: 3×Ala-MxEnc (natural protein, Myxococcus xanthus)
chain: MPDFLGHAENPLREEEWARLNETVIQVARRSLVGRRILDIYGPLGAGVQTVPYDEFQGVSPGAVDIVGEQETAMVFTDARKFKTIPIIYKDFLLHWRDIEAARTHNMPLDVSAAAGAAALCAQQEDELIFYGDARLGYEGLMTANGRLTVPLGDWTSPGGGFQAIVEATRKLNEQGHFGPYAVVLSPRLYSQLHRIYEAAAVLEIETIRQLASDGVYQSNRLRGESGVVVSTGRENMDLAVSMDMVAAYLGASRMNHPFRVLEALLLRIKHPDAICTLEGAGATERR
binding result [1]: binds

B2: 3×Asp-MxEnc (natural protein, Myxococcus xanthus)
chain: B1 chain with A199D, A200D, A201D
binding result [2]: binds

B3: 3×His-MxEnc (K199H/T200H/G201H triple point mutant of the M. xanthus encapsulin) (natural protein, Myxococcus xanthus)
chain: B1 chain with A199H, A200H, A201H
stoichiometry N [3]: 60
